Results on one substance are retold here after publication doi:10.1101/2021.09.09.459598.

For the test, the target named is soybean QUAC1 from Glycine max (GmQUAC1) (soybean (Glycine max)). Put plainly: cryo-EM structure.

As for “soybean QUAC1 from Glycine max (GmQUAC1) (natural protein)”, the stoichiometry N is 2.

The stoichiometry N is a count of units in the complex or per binding partner.
